# According to patent US20050107285A1:
# How the values were obtained:
# [1] = biological target: FcγRIIIb receptor on human neutrophils (human) (UniProt O75015); assay: flow cytometry of TNFα-primed human neutrophils with saturating FITC-Leu11b, quantified with Quantum Simply Cellular microbeads
# [2] = biological target: FcγRIIIb receptor on human neutrophils (human) (UniProt O75015); assay: cell-based or functional assay
# Chain of UniProt O75015 (O75015 17-200): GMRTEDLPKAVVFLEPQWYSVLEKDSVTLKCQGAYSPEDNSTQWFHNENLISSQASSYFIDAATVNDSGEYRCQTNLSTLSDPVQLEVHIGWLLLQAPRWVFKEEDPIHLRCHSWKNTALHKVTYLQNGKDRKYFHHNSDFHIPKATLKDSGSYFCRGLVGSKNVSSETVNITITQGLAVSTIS
antibody-binding sites per cell (antibody-binding sites per cell) [1],respiratory burst (luminol chemiluminescence) of primed neutrophils after PI-PLC depletion of surface FcγRIIIb [2] [% decrease],Substance
240000,,FITC-labelled Leu11b (anti-CD16) (antibody)
,70,insoluble IgG-containing immune complexes (human serum albumin and rabbit anti-HSA antibodies) (from UniProt P02768 25-609)
